The source of these data is doi:10.1101/2023.05.10.540161 (bioRxiv, 2023).

The data set concerns the molecule itself. As to the kind of experiment: crystal structure; His6-CENP-E 2452-2598 at 11 mg/ml, crystallized in 0.2 M potassium citrate tribasic monohydrate, 20% w/v PEG 3350 pH 8.3, room temperature; a CENP-E dimer in the asymmetric unit.

Usually stoichiometry N stands for a count of units in the complex or per binding partner.

B1: His6-CENP-E_(2452-2598) (domain or fragment, human, UniProt Q02224-1 2452-2598, looked up)
chain: PYKEEIEDLKMKLVKIDLEKMKNAKEFEKEISATKATVEYQKEVIRLLRENLRRSQQAQDTSVISEHTDPQPSNKPLTCGGGSGIVQNTKALILKSEHIRLEKEISKLKQQNEQLIKQKNELLSNNQHLSNEVKTWKERTLKREAHK
notes: CENP-E (kinesin-7), human, residues 2452-2598, from CENP-E transcript variant 1 (NM_001813.2); in the crystal only K2454 to S2506 were seen (likely C-terminal degradation during crystallization); Cloned into pET3aTr; also called minimal corona targeting domain; corona-targeting domain of CENP-E; source: E. coli BL21, purified as previously described (Legal et al., 2020)
B1: the “stoichiometry N” value stood at 2.
